# Data: the supplement of paper PMC10201428
# ± gives the standard deviation of the averaged measurements.
# Columns and labels:
# [1] = system: VchCAST RNA-guided transposition machinery (E. coli BL21(DE3) host, lacZ target); assay: relative integration efficiency (T-RL orientation) vs wild-type transposon end (log2 (normalized fold change)); transposon end mutated: left end; higher = more efficient transposition
# Outline: (§1)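 Relative integration efficiency is a fold change of output over input barcode abundance, normalised to reference barcodes and log-transformed. Input plasmids and genomic integration junctions were PCR-amplified and Illumina-sequenced from E. coli BL21(DE3) co-transformed with a T7-driven effector plasmid and pUC57 donor pools of 1549 left-end or 1849 right-end transposon variants. Plating was done with 0.1 mM IPTG at 37°C for 18 h, with two biological output replicates and four reference barcodes.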
# [2] = system: VchCAST RNA-guided transposition machinery (E. coli BL21(DE3) host, lacZ target); assay: relative integration efficiency (T-LR orientation) vs wild-type transposon end (log2 (normalized fold change)); transposon end mutated: left end; higher = more efficient transposition
# Outline: as §1
Sequence,relative integration efficiency (log2) [1],relative integration efficiency (log2) [2]
AATGTTGTTGATGCAACCATAAAGTGATATTTAATAATTATCAACCATAAAGTGATATTTAACTTAACAACCATATATTGATATCTCACAAAACAACCATAAGTTGATATTTTTGTGAATCGAGTATTTCAGCAAAACTACTGCAGTAAGAA,-3.5 ± 0.95,-4.24 ± 1.2
AATGTTGTTGATGCAACCATAAAGTGATATTTAATAATTATCAACCATATATTGATATCTCTTATAATCAGCAACTTAACCACAAAAACAAAACAACCATAAGTTGATATTTTTGTGAATCGAGTATTTCAGCAAAACTACTGCAGTAAGAA,-4.57 ± 1.7,-2.13 ± 1.5
AATGTTGTTGATGCAACCATAAAGTGATATTTAATAATTATTCAACCATATATTGATATCTCACAAAACAACCATAAGTTGATATTTTTATAATCAGCAACTTAACCACAAAATGTGAATCGAGTATTTCAGCAAAACTACTGCAGTAAGAA,-6.852 ± 0.014,< -10
AATGTTGTTGATGCAACCATAAAGTGATATTTAATAATTATTCAACCATATATTGATATCTCTATAATCAGCAACTTAACCACAAAAACAAAACAACCATAAGTTGATATTTTTGTGAATCGAGTATTTCAGCAAAACTACTGCAGTAAGAA,-5.19 ± 1.2,-3.42 ± 0.56
AATGTTGTTGATGCAACCATAAAGTGATATTTAATAATTATTGCGCCGACTACCAGGCCAACACCCCACCAACGCGCGGTCGCGAGACACCCCACCAACGCCTGGTCGCGGGGGTGTCCGATCTGATTTCAGCAAAACTACTGCAGTAAGAA,-6.73 ± 0.58,-5.68 ± 3.3
AATGTTGTTGATGCAACCATAAAGTGATATTTAATAATTATTTACAACCATATATTGATATCTCACAAAACAACCATAAGTTGATATTTTTGTGAATCGAGTATTTCAGCAAAACTACTGCAGTAAGAAAGTTACTTCGTGGTATGGGAGGA,-5.81 ± 1.1,-1.76 ± 1
AATGTTGTTGATGCAACCATAAAGTGATATTTAATAATTATTTACAACCATATATTGATATCTCTAATCAGCAACTTAACCACAAAAACAAAACAACCATAAGTTGATATTTTTGTGAATCGAGTATTTCAGCAAAACTACTGCAGTAAGAA,-4.75 ± 1.3,-2.24 ± 2.1
AATGTTGTTGATGCAACCATAAAGTGATATTTAATAATTATTTATAACAACCATATATTGATATCTCTCAGCAACTTAACCACAAAAACAAAACAACCATAAGTTGATATTTTTGTGAATCGAGTATTTCAGCAAAACTACTGCAGTAAGAA,-4.46 ± 0.052,-2.66 ± 1.4
AATGTTGTTGATGCAACCATAAAGTGATATTTAATAATTATTTATAAGACTACCAGGCCAACACCCCACCAACGCGCGGTCGCGAGACACCCCACCAACGCCTGGTCGCGGGGGTGTCCGATCTGATTTCAGCAAAACTACTGCAGTAAGAA,-6.62 ± 1.2,-6.04 ± 3.5
AATGTTGTTGATGCAACCATAAAGTGATATTTAATAATTATTTATAATACTACCAGGCCAACACCCCACCAACGCGCGGTCGCGAGACACCCCACCAACGCCTGGTCGCGGGGGTGTCCGATCTGATTTCAGCAAAACTACTGCAGTAAGAA,-6.5 ± 1.2,-3.51 ± 1.3
AATGTTGTTGATGCAACCATAAAGTGATATTTAATAATTATTTATAATCAACCATATATTGATATCTCACAAAACAACCATAAGTTGATATTTTTGTGAATCGAGTATTTCAGCAAAACTACTGCAGTAAGAAAGTTACTTCGTGGTATGGG,-6.16 ± 1.6,-4.56 ± 2.6
AATGTTGTTGATGCAACCATAAAGTGATATTTAATAATTATTTATAATCAACCATATATTGATATCTCCAGCAACTTAACCACAAAAACAAAACAACCATAAGTTGATATTTTTGTGAATCGAGTATTTCAGCAAAACTACTGCAGTAAGAA,-3 ± 0.78,-2.65 ± 0.85
AATGTTGTTGATGCAACCATAAAGTGATATTTAATAATTATTTATAATCACAACCATATATTGATATCTCACAAAACAACCATAAGTTGATATTTTTGTGAATCGAGTATTTCAGCAAAACTACTGCAGTAAGAAAGTTACTTCGTGGTATG,-8.21 ± 0.54,-5.27 ± 1
AATGTTGTTGATGCAACCATAAAGTGATATTTAATAATTATTTATAATCAGCAACTCAACCATATATTGATATCTCACAAAACAACCATAAGTTGATATTTTTGTGAATCGAGTATTTCAGCAAAACTACTGCAGTAAGAAAGTTACTTCGT,-3.68 ± 1.1,-3.27 ± 0.88
AATGTTGTTGATGCAACCATAAAGTGATATTTAATAATTATTTATAATCAGCAACTGCCAACACCCCACCAACGCGCGGTCGCGAGACACCCCACCAACGCCTGGTCGCGGGGGTGTCCGATCTGATTTCAGCAAAACTACTGCAGTAAGAA,-6.35 ± 0.99,-3.03 ± 0.58
AATGTTGTTGATGCAACCATAAAGTGATATTTAATAATTATTTATAATCAGCAACTTAAAACACCCCACCAACGCGCGGTCGCGAGACACCCCACCAACGCCTGGTCGCGGGGGTGTCCGATCTGATTTCAGCAAAACTACTGCAGTAAGAA,-5.87 ± 1.1,-3.63 ± 1.1
AATGTTGTTGATGCAACCATAAAGTGATATTTAATAATTATTTATAATCAGCAACTTAACAACCATATATTGATATCTCACAAAACAACCATAAGTTGATATTTTTGTGAATCGAGTATTTCAGCAAAACTACTGCAGTAAGAAAGTTACTT,-3.63 ± 1.3,-4.07 ± 1.9
AATGTTGTTGATGCAACCATAAAGTGATATTTAATAATTATTTATAATCAGCAACTTAACAACCATATATTGATATCTCCCACAAAAACAAAACAACCATAAGTTGATATTTTTGTGAATCGAGTATTTCAGCAAAACTACTGCAGTAAGAA,-1.81 ± 0.81,-3.54 ± 1.9
AATGTTGTTGATGCAACCATAAAGTGATATTTAATAATTATTTATAATCAGCAACTTAACACACCCCACCAACGCGCGGTCGCGAGACACCCCACCAACGCCTGGTCGCGGGGGTGTCCGATCTGATTTCAGCAAAACTACTGCAGTAAGAA,-5.82 ± 1.5,-3.16 ± 0.77
AATGTTGTTGATGCAACCATAAAGTGATATTTAATAATTATTTATAATCAGCAACTTAACCAACCCCACCAACGCGCGGTCGCGAGACACCCCACCAACGCCTGGTCGCGGGGGTGTCCGATCTGATTTCAGCAAAACTACTGCAGTAAGAA,-5.95 ± 1.6,-4.2 ± 0.92
AATGTTGTTGATGCAACCATAAAGTGATATTTAATAATTATTTATAATCAGCAACTTAACCACAAAAACCAACGCGCGGTCGCGAGAACAAAAACCAACGCCCTGTCGCGGGCTGTGAATCGAGTATTTCAGCAAAACTACTGCAGTAAGAA,-6.97 ± 1.6,-4.56 ± 2.1
AATGTTGTTGATGCAACCATAAAGTGATATTTAATAATTATTTATAATCAGCAACTTAACCACAAAAACCAACGCGCGGTCGCGAGAACAAAACAACCATAAGTTGATATTTTTGTGAATCGAGTATTTCAGCAAAACTACTGCAGTAAGAA,-3.6 ± 1.3,-2.16 ± 0.37
AATGTTGTTGATGCAACCATAAAGTGATATTTAATAATTATTTATAATCAGCAACTTAACCACAAAAACCAACGCGCGGTCGCGAGACACCCCACCAACGCCTGGTCGCGGGGGTGTCCGATCTGATTTCAGCAAAACTACTGCAGTAAGAA,-7.55 ± 2,-4.28 ± 1
AATGTTGTTGATGCAACCATAAAGTGATATTTAATAATTATTTATAATCAGCAACTTAACCACAAAACAAAACGCGCGGTCGCGAGACACCCCACCAACGCCTGGTCGCGGGGGTGTCCGATCTGATTTCAGCAAAACTACTGCAGTAAGAA,-6.07 ± 0.85,-3.29 ± 0.78
